Holding throughout (conditions): BLI in buffer A (5 mM HEPES pH 7.5, 10 mM NaCl), 2.5-10 uM protein; CD with 7.5 or 15 uM ds-(dCdG)6, protein/DNA 0-8, buffer not shown in material; temperature …
Series [1] relates to yabZαE3L (yaba-like disease virus). The experiment in a line: BLI. Background: Biolayer interferometry detects binding as a change in optical thickness at a sensor tip.
Series [2] has as its target T1, caZαPKZ R39A/K56A R39A;K56A (Carassius auratus) (UniProt Q7T2M9).
T1 sequence: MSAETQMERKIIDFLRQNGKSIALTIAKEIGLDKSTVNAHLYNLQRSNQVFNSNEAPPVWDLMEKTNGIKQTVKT
The series is described as follows: CD B-to-Z transition.

In series [3] the target is T2, caZαPKZ S35A/K56A/P57A S35A;K56A;P57A (Carassius auratus) (UniProt Q7T2M9).
T2 sequence: T1 sequence with S35A, A39R, P57A
The experiment in a line: CD B-to-Z transition.

Series [4] deals with T3, caZαPKZ K56A/P57A K56A;P57A (Carassius auratus) (UniProt Q7T2M9).
T3 sequence: T1 sequence with A39R, P57A
The series is described as follows: CD B-to-Z transition.

Substitutions are numbered along the chain they refer to. pKd: −log10 of the molar value.

For the sequence “ATTATATCGCGCGCGCGCGCGCGCGCGCG / CGCGCGCGCGCGCGCGCGCG [biotin-ATTATAT(CG)10 duplex]”, in series [1], the pKd was 7.06.
With “CGCGCGCGCGCG (double strand) [ds-(dCdG)6]”, the binding signal (% of WT activity) in series [2] was 80; in series [3], 50; in series [4], 50.

Usually pKd stands for the Kd on a negative log10 scale, so that one unit is a factor of ten. Higher therefore signals a small Kd.

The record behind these values is publication PMC4027156.
